Where “and” joins values, the source holds several entries; their conditions need not be identical. Identical values can stand only once.
Assays:
[1] = molecular target: Aβ42 F19,20T/I31P MRF (AβMRF carrying the triple mutation Phe19,20Thr and Ile31Pro in its Aβ42 portion) (not stated | S. cerevisiae) (UniProt P05453); test: SDS electrophoresis of SDS-stable oligomers with immunoblot; yeast lysates treated with 1% SDS for 7 min at room temperature, resolved in 1.5% agarose or 7.5% polyacrylamide gels, blotted with anti-RF (BE4) or anti-Aβ (6E10); cells also grown with 6.3 mM guanidine or with HSP104 deleted; densitometry
[2] = molecular target: AβMRF (met-Aβ42-HA-M-3xHA-RF; Aβ42 fused to the N terminus of Sup35p MRF) (not stated | S. cerevisiae) (UniProt P05453); test: as above

Substance	stoichiometry N [1]	monomer's share of the pool (HSP104 WT cells) [2] [%]	monomer's share of the pool (hsp104Δ cells) [2] [%]	stoichiometry N [2]
Aβ42 F19,20T/I31P MRF (AβMRF carrying the triple mutation Phe19,20Thr and Ile31Pro in its Aβ42 portion) (from UniProt P05453 124-685)	2	–	–	–
AβMRF (met-Aβ42-HA-M-3xHA-RF; Aβ42 fused to the N terminus of Sup35p MRF) (from UniProt P05453 124-685)	–	34	47	2 and 3 and 4

— publication PMC1594584
